Substitutions are numbered along the chain they refer to. Numbers in names are those of the source. Blank lines part the entries; values can stand above or below the binder they belong to.
Experiments:
[1] = molecular target: T1, rHuman EGF R/Fc Chimera, CF (R&D Systems Cat#344-ER) (human, UniProt P00533 25-645); assay: ECL Multispot (MSD), 10 nM Fab; blank of this row 363
T1 construct: Bought reagent; also called epidermal growth factor receptor; Fc part of the bought chimera not given

[2] = molecular target: T2, rHuman Notch-1/Fc Chimera, CF (R&D Systems Cat#3647-TK) (human, UniProt P46531 19-526); assay: as above
T2 construct: Bought reagent; Fc part of the bought chimera not given

[3] = molecular target: T3, rHuman HGF R/c-MET/Fc Chimera, CF (R&D Systems Cat#358-MT/CF) (human, UniProt P08581 25-932); assay: as above
T3 construct: Bought reagent; also called HGF R/Fc; hepatocyte growth factor receptor; Fc part of the bought chimera not given
T3 sequence (P08581 25-932, change not shown): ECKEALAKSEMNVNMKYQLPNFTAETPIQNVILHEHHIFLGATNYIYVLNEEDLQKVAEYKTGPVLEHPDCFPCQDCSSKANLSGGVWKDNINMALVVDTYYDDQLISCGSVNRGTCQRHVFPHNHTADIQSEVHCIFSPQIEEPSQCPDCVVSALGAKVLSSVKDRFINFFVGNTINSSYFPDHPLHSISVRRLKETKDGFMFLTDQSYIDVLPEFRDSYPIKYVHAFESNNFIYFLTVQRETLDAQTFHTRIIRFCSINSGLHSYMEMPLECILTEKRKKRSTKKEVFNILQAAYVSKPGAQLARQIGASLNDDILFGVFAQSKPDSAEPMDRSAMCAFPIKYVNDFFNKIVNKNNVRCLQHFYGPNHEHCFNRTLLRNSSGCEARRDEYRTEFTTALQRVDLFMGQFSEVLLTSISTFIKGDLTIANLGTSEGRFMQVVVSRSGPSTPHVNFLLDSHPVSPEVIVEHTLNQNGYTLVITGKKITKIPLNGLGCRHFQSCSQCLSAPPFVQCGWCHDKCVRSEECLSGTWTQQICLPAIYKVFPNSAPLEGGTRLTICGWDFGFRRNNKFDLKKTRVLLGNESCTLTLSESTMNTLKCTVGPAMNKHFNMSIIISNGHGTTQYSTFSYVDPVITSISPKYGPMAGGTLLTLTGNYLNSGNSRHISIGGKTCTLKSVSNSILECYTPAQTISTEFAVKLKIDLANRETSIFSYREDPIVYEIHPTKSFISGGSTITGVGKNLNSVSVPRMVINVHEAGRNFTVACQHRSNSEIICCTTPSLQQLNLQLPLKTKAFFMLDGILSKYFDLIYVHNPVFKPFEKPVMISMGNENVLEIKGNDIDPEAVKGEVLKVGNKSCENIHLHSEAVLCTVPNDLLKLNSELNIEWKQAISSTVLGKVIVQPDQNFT

[4] = molecular target: T4, rHuman ErbB2/Fc Chimera, CF (R&D Systems Cat#1129-ER) (human, UniProt P04626 23-652); assay: as above
T4 construct: Bought reagent; also called human epidermal growth factor 2 receptor; Fc part of the bought chimera not given

[5] = molecular target: T5, rHuman IGF-1 sR, (IGF-1 sR), CF (R&D Systems Cat#391-GR) (human, UniProt P08069 31-932); assay: as above
T5 construct: Bought soluble receptor; also called insulin-like growth factor-1 soluble receptor

[6] = molecular target: T6, rHuman CD44/Fc Chimera, CF (R&D Systems Cat#3660-CD) (human, UniProt P16070 21-220); assay: as above
T6 construct: Bought reagent; Fc part of the bought chimera not given

[7] = molecular target: T7, rHuman P-Cadherin/Fc Chimera, CF (R&D Systems Cat#861-PC) (human, UniProt P22223 108-654); assay: as above
T7 construct: Bought reagent; Fc part of the bought chimera not given

[8] = molecular target: T8, rHuman Erythropoietin R/Fc Chimera, CF (R&D Systems Cat#963-ER) (human, UniProt P19235 25-250); assay: as above
T8 construct: Bought reagent; also called EPO R; EPO R/Fc; Fc part of the bought chimera not given
T8 sequence (looked up): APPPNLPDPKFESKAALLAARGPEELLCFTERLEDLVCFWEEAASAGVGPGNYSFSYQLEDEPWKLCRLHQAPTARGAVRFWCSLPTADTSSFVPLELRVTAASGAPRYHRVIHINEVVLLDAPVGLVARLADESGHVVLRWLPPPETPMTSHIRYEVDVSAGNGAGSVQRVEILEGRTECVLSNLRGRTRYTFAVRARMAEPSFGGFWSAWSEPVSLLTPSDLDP

[9] = molecular target: T1, rHuman EGF R/Fc Chimera, CF (R&D …); assay: ECL Multispot (MSD), 10 nM Fab; blank of this row 204
[10] = molecular target: T2, rHuman Notch-1/Fc Chimera, CF (R&D …); assay: as above
[11] = molecular target: T3, rHuman HGF R/c-MET/Fc Chimera, CF (R&D …); assay: as above
[12] = molecular target: T4, rHuman ErbB2/Fc Chimera, CF (R&D …); assay: as above
[13] = molecular target: T5, rHuman IGF-1 sR, (IGF-1 sR), CF (R&D …); assay: as above
[14] = molecular target: T6, rHuman CD44/Fc Chimera, CF (R&D Systems …); assay: as above
[15] = molecular target: T7, rHuman P-Cadherin/Fc Chimera, CF (R&D …); assay: as above
[16] = molecular target: T8, rHuman Erythropoietin R/Fc Chimera, CF …; assay: as above
[17] = molecular target: T1, rHuman EGF R/Fc Chimera, CF (R&D …); assay: ECL Multispot (MSD), 10 nM Fab; blank of this row 203
[18] = molecular target: T2, rHuman Notch-1/Fc Chimera, CF (R&D …); assay: as above
[19] = molecular target: T3, rHuman HGF R/c-MET/Fc Chimera, CF (R&D …); assay: as above
[20] = molecular target: T4, rHuman ErbB2/Fc Chimera, CF (R&D …); assay: as above
[21] = molecular target: T5, rHuman IGF-1 sR, (IGF-1 sR), CF (R&D …); assay: as above
[22] = molecular target: T6, rHuman CD44/Fc Chimera, CF (R&D Systems …); assay: as above
[23] = molecular target: T7, rHuman P-Cadherin/Fc Chimera, CF (R&D …); assay: as above
[24] = molecular target: T8, rHuman Erythropoietin R/Fc Chimera, CF …; assay: as above

ECL signal [1]: 467 | ECL signal [2]: 376 | ECL signal [3]: 422 | ECL signal [4]: 525 | ECL signal [5]: 361 | ECL signal [6]: 345 | ECL signal [7]: 305 | ECL signal [8]: 494 | ECL signal [9]: 394 | ECL signal [10]: 283 | ECL signal [11]: 200 | ECL signal [12]: 302 | ECL signal [13]: 213 | ECL signal [14]: 340 | ECL signal [15]: 118 | ECL signal [16]: 343
B1: Fab VH1-46_IGHD6-6*01_IGHJ1*01 S102A/S103P/S104F (APF) & L6_IGKJ1*01 (Fab, V domains shown)
VH: QVQLVQSGAEVKKPGASVKVSCKASGYTFTSYYMHWVRQAPGQGLEWMGIINPSGGSTSYAQKFQGRVTMTRDTSTSTVYMELSSLRSEDTAVYYCAREEYAPFSAEYFQHWGQGTLVTVSS
VL: not shown
notes: Tested as Fab made in E. coli; also called H:APF & L:wt; APF triple mutant

ECL signal [17]: 286 | ECL signal [18]: 272 | ECL signal [19]: 235 | ECL signal [20]: 314 | ECL signal [21]: 136 | ECL signal [22]: 244 | ECL signal [23]: 178 | ECL signal [24]: 277
B2: Fab VH1-46_IGHD6-6*01_IGHJ1*01 S102A/S103P/S104F H111S & L6_IGKJ1*01 (Fab, V domains shown)
VH: B1 VH with H111S
VL: not shown
notes: Fab format as for m1; also called APF H111S

— patent publication US20120316071A1 (published 2012)
